The results in this text go back to paper PMC8622166 (2021).

The target of assay [1] is T1, non-isoprenylated RAC1 full-length (RAC1^FL) (human, UniProt P63000 1-192). As to the kind of experiment: FP; mdGDP-bound RAC1.
Assay [2] addresses T1, non-isoprenylated RAC1 full-length …. Briefly: stopped-flow.
Assay [3] has the same target. Briefly: kinetic, koff/kon.
Assay [4] has the same target. As to the kind of experiment: FP.
For assay [5] the target is unchanged. Briefly: stopped-flow. This is another data set of the same source.
Assay [6] has the same target. As to the kind of experiment: kinetic, koff/kon. This is another data set of the same source.

Where two headings read alike, the source gives them in different places.

B1: GDI1^ΔN25 (domain or fragment)
chain: NYKPPAQKSIQEIQELDKDDESLRKYKEALLGRVAVSADPNVPNVVVTGLTLVCSSAPGPLELDLTGDLESFKKQSFVLKEGVEYRIKISFRVNREIVSGMKYIQHTYRKGVKIDKTDYMVGSYGPRAEEYEFLTPVEEAPKGMLARGSYSIKSRFTDDDKTDHLSWEWNLTIKKDWKD
On to B1, for which, in assay [1], the Kd worked out at 174 µM.

B2: GDI1^ΔC6 (domain or fragment)
chain: MAEQEPTAEQLAQIAAENEEDEHSVNYKPPAQKSIQEIQELDKDDESLRKYKEALLGRVAVSADPNVPNVVVTGLTLVCSSAPGPLELDLTGDLESFKKQSFVLKEGVEYRIKISFRVNREIVSGMKYIQHTYRKGVKIDKTDYMVGSYGPRAEEYEFLTPVEEAPKGMLARGSYSIKSRFTDDDKTDHLSWEWNLTI
Turning to B2, the dissociation rate constant (koff) in assay [2] worked out at 0.59 s⁻¹. Further, the Kd came to 29 µM in assay [1] and 21.7 µM in assay [3].

B3: GDI1^E121K (natural protein)
chain: MAEQEPTAEQLAQIAAENEEDEHSVNYKPPAQKSIQEIQELDKDDESLRKYKEALLGRVAVSADPNVPNVVVTGLTLVCSSAPGPLELDLTGDLESFKKQSFVLKEGVEYRIKISFRVNRKIVSGMKYIQHTYRKGVKIDKTDYMVGSYGPRAEEYEFLTPVEEAPKGMLARGSYSIKSRFTDDDKTDHLSWEWNLTIKKDWKD
As to B3, the dissociation constant Kd in assay [1] was 14 µM.

B4: GDI1 (RHOGDI1), wild type (natural protein)
chain: MAEQEPTAEQLAQIAAENEEDEHSVNYKPPAQKSIQEIQELDKDDESLRKYKEALLGRVAVSADPNVPNVVVTGLTLVCSSAPGPLELDLTGDLESFKKQSFVLKEGVEYRIKISFRVNREIVSGMKYIQHTYRKGVKIDKTDYMVGSYGPRAEEYEFLTPVEEAPKGMLARGSYSIKSRFTDDDKTDHLSWEWNLTIKKDWKD
Turning to B4, the figures for the equilibrium dissociation constant (Kd) in assay [4], in assay [1] and in assay [6] were 0.96 µM, 1.2 µM and 1.03 µM, respectively. The molecule also gave an off-rate (koff) in assay [5] of 0.34 s⁻¹.

B5: GDI1^2E>2K (E163K and E164K) (natural protein)
chain: MAEQEPTAEQLAQIAAENEEDEHSVNYKPPAQKSIQEIQELDKDDESLRKYKEALLGRVAVSADPNVPNVVVTGLTLVCSSAPGPLELDLTGDLESFKKQSFVLKEGVEYRIKISFRVNREIVSGMKYIQHTYRKGVKIDKTDYMVGSYGPRAEEYEFLTPVKKAPKGMLARGSYSIKSRFTDDDKTDHLSWEWNLTIKKDWKD
With B5, the Kd in assay [1] is 117 µM.

B6: GDI1^ΔN15 (domain or fragment)
chain: AENEEDEHSVNYKPPAQKSIQEIQELDKDDESLRKYKEALLGRVAVSADPNVPNVVVTGLTLVCSSAPGPLELDLTGDLESFKKQSFVLKEGVEYRIKISFRVNREIVSGMKYIQHTYRKGVKIDKTDYMVGSYGPRAEEYEFLTPVEEAPKGMLARGSYSIKSRFTDDDKTDHLSWEWNLTIKKDWKD
Regarding B6, the koff in assay [2] amounted to 0.54 s⁻¹. Moreover, the Kd was determined as 102 µM in assay [1] and 16.8 µM in assay [3].
